The experiment deals with T1, myc-tagged Mindin (pcDNA-His/myc-Mindin) (human, UniProt Q9BUD6 27-331).
T1 construct: mature; not shown: His/myc tag of vector pcDNA4-His/myc A
T1 sequence (looked up): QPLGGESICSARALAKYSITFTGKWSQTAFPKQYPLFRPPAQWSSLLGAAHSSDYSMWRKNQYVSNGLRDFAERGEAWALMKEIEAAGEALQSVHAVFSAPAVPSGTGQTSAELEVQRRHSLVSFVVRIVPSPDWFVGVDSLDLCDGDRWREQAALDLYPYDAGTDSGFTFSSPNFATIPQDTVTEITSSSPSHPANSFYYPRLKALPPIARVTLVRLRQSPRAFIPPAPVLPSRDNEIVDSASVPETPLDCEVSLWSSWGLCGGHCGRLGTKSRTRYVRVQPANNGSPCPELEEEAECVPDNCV
The experiment can be described thus: pulldown of myc-tagged Mindin with immobilized GST-CAPPD. The protocol:
Affinity chromatography on immobilized GST- or Ig-fusion proteins. These studies were performed essentially as described (Ichtchenko et al., 1995, Cell 81:435-443; Hata et al., Nature 366:347-351). Brain membrane extract was precleared by incubation (2 h at 4° C.) with glutathione agarose and incubated overnight at 4° C. with immobilized GST-CAPPD on glutathione agarose beads preequilibrated with buffer B. Beads were washed with buffer B and serially eluted with 2 ml of buffer B containing 0.3 M NaCl, 0.5 M NaCl, 1.0 M NaCl, or 1.0 M NaCl, 10 mM EGTA, and 5 mM EDTA (instead of 2 mM CaCl2). Eluted proteins were analyzed by SDS-PAGE and Coomassie blue staining. Bound proteins were identified by liquid chromatography/mass spectroscopy of tryptic fragments. For pulldown assays, the medium from COS cells transfected with pcDNA4-His/myc-F spondin or pcDNA-His/myc-Mindin (collected 48-72 h post transfection) was adjusted to (final concentrations) 10 mM HEPES-NaOH pH 7.4, 1 mM EGTA, 1% Triton X-100, proteinase inhibitors were added, and the supernatant was precleared with immobilized GST orIg-C. The treated medium was then incubated overnight at 4° C. with GST or GST-CAPPD immobilized on glutathione agarose or with various Ig-APP fusion proteins immobilized on protein-A Sepharose. […]

B1: GST-CAPPD fusion protein (pGEX-CAPPD, APP695 residues 286-557) (other, human, UniProt P05067-4 286-557, looked up)
chain: VVRVPTTAASTPDAVDKYLETPGDENEHAHFQKAKERLEAKHRERMSQVMREWEEAERQAKNLPKADKKAVIQHFQEKVESLEQEAANERQQLVETHMARVEAMLNDRRRLALENYITALQAVPPRPRHVFNMLKKYVRAEQKDRQHTLKHFEHVRMVDPKKAAQIRSQVMTHLRVIYERMNQSLSLLYNVPAVAEEIQDEVDELLQKEQNYSDDVLANMISEPRISYGNDALMPSLTETKTTVELLPVNGEFSLDDLQPWHSFGADSVPAN
notes: range 286-557; Expressed in bacteria and immobilized on glutathione agarose/Sepharose; also called CAPPD-GST fusion protein; central APP domain; not shown: glutathione S-transferase of vector pGEX-KG
Take B1: the binding result is “no binding”.

Source of the values: patent US20040209310A1 (published 2004).
